Reference: patent KR20230010676A (dated 2023)
Positions count from the first letter of the chain named. Read-outs that look alike come from different tables or passages of the source.

B1: S2X35 (antibody, V domains shown)
VH: QVQLVQSGAEVKKPGASVKVSCKASGYTFTNYGISWVRQAPGQGLEWMGWISAYKGNTNYAQKLQGRVTMTTDTSTSTAYMELRSLRSDDTAVYYCARPDYQVLGYDFWIGYYGMDVWGQGTTVIVSS
VL: QSVLTQPPSVSGAPGQRVTISCTGSSSNIGAGYDVHWYQQLPGTAPKLLIYGNTNRPSGVPDRFSGSKSGTSASLAITGLQAEDEADYYCQSYDSSLSGSEVVFGGGTKLTVL
notes: also called S2X35-11
B2: S2E12 (antibody, V domains shown)
VH: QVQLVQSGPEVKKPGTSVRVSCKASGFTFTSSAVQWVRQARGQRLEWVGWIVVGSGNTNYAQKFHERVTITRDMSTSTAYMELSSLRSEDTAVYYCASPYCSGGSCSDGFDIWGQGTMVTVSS
VL: DIVLTQTPGTLSLSPGERATLSCRASQSVSSSYLAWYQQKPGQAPRLLIYGASSRATGIPDRFSGSGSGTDFTLTISRLEPEDFAVYYCQQYVGLTGWTFGQGTKVEIK
notes: also called S2E12 WT; S2E12 wt
B3: 409_11_4_v2 (antibody, V domains shown)
VH: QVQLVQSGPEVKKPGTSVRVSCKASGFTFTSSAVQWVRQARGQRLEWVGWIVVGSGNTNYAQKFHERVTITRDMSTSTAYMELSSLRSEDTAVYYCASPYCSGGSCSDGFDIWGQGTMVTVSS
VL: B2 VL with L47A
notes: also called S2E12-v2
B4: 409_11_4_v7 (antibody, V domains shown)
VH: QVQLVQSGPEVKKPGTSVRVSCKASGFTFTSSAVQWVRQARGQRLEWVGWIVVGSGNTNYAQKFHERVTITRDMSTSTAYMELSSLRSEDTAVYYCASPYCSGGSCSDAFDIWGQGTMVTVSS
VL: B2 VL
B5: 409_11_4_v13 (antibody, V domains shown)
VH: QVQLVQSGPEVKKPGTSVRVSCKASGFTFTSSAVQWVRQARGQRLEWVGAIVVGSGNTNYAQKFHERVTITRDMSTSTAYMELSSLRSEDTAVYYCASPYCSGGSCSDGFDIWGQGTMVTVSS
VL: B2 VL
B6: 409_11_4_v5 (antibody, V domains shown)
VH: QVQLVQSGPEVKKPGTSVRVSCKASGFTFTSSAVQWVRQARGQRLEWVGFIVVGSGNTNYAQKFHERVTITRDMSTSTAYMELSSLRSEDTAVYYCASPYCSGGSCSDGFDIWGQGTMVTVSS
VL: B2 VL
B7: 409_11_4_v12 (antibody, V domains shown)
VH: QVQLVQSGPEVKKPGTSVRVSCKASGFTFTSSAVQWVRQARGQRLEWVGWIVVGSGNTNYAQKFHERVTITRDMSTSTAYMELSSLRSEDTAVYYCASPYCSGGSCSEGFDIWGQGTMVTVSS
VL: B2 VL
B8: 409_11_4_v4 (antibody, V domains shown)
VH: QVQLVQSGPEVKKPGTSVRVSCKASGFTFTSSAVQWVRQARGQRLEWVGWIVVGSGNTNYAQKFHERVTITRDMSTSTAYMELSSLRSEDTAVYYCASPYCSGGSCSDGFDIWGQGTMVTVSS
VL: B2 VL with W98Y
B9: 409_11_4_v3 (antibody, V domains shown)
VH: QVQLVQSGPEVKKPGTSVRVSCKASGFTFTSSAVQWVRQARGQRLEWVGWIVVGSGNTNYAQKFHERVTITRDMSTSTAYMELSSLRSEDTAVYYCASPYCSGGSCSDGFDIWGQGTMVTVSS
VL: B2 VL with W98F
B10: 409_11_4_v6 (antibody, V domains shown)
VH: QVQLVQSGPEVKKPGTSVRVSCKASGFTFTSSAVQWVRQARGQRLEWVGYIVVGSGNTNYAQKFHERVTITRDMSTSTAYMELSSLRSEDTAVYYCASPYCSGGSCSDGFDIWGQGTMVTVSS
VL: B2 VL
B11: S2X30 (antibody, V domains shown)
VH: EVQLVQSGAEVKKPGSSVKVSCKASGGTFGSYTISWVRQAPGQGLEWMGRIIPILSIPNYAQKFQGRVTFTADKSTSTAYMELSSLRSEDTAVYYCARGGGGTHAVPHYYFDSWGQGTLVTVSS
VL: EIVMMQSPATLSVSPGERATLSCRASQSVSSNLAWYQHKPGQAPRLLIYGASTRATGIPARFSGSGSGTEFTLTISSMQSEDFAVYYCQQYNNWPFTFGGGTKVEIK
notes: also called S2X30-11
B12: S2X16 (antibody, V domains shown)
VH: EVQLVQSGAEVKKPGASVKVSCKASGYIFTDHYMHWVRQAPGQGLEWMGWINPNSGGTNYAQKFQGRVTMTRDTSINTAYMELSRLRSDDTAVHYCARDRSRFRFFSPDFDYWGQGTLVTVSS
VL: not shown
notes: also called S2X16-11
B13: S2X47 (antibody, V domains shown)
VH: QVQLQESGPGLVKPSQTLSLTCTVSGGSISSRSYYWSWIRQPAGKGLEWIGRIYTSGNTNYNPSLRSRVTISVDTSKNQFSLKLGSVTAADTAVYYCARERIIGTAHVGGWFDPWGQGTLVTVSS
VL: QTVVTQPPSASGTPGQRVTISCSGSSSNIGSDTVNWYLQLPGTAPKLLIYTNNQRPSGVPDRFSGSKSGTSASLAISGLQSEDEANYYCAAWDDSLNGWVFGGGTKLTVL
notes: also called S2X47-11

Columns and labels:
SARS-CoV-2 스파이크 단백질 = SARS-CoV-2 스파이크 단백질 (SARS-CoV-2, UniProt P0DTC2 14-1273); test: cell-based or functional assay
[1] = molecular target: T1, SARS-CoV-2 RBD (자체 생산, BetaCoV/Wuhan-Hu-1/2019 스파이크의 잔기 331 내지 550, 수탁 번호 MN908947) (SARS-CoV-2 (BetaCoV/Wuhan-Hu-1/2019), UniProt P0DTC2 331-550); test: ELISA, RBD coated on plate, serial dilutions of recombinant mAb
T1 construct: range 331-550; also called SARS-CoV-2 스파이크 단백질 RBD

[2] = molecular target: T2, SARS-CoV RBD (Sino Biological) (SARS-CoV (SARS-CoV-1), UniProt P59594 306-527); test: as above
T2 construct: domain: RBD; also called SARS-CoV-1 RBD; SARS-CoV-1 스파이크 단백질 RBD

[3] = molecular target: T3, SARS-CoV-2 RBD (정제된, SPR) (SARS-CoV-2 (Wuhan-Hu-1), UniProt P0DTC2 331-550); test: SPR, Biacore T200, single-cycle kinetics, antibody captured, RBD injected
[4] = molecular target: T3, SARS-CoV-2 RBD (정제된, SPR)
[5] = molecular target: T3, SARS-CoV-2 RBD (정제된, SPR); remark: listed apart in the source
[6] = molecular target: T3, SARS-CoV-2 RBD (정제된, SPR); test: SPR, Biacore T200; ratio against S2E12 WT
[7] = molecular target: T1, SARS-CoV-2 RBD (자체 생산, …); test: ELISA, RBD coated on plate, serial dilutions of recombinant mAb; remark: listed apart in the source
[8] = molecular target: T3, SARS-CoV-2 RBD (정제된, SPR); test: SPR, Biacore T200; ratio against S2E12 WT; remark: listed apart in the source
[9] = molecular target: T2, SARS-CoV RBD (Sino Biological); test: ELISA, RBD coated on plate

Binder | IC50 (neutralisation) (SARS-CoV-2 스파이크 단백질) | IC80 (neutralisation) (SARS-CoV-2 스파이크 단백질) | IC90 (neutralisation) (SARS-CoV-2 스파이크 단백질) | Kd [3] | koff [3] | kon [3] | Kd [5] | KD_WT/KD [6] | further results
B1 | 92 ng/mL | 320 ng/mL | 661 ng/mL | – | – | – | – | – | EC50 [1]: 0.0483 µg/mL; EC50 [2]: 0.0846 µg/mL
B2 | – | – | – | 1.18 nM | 0.00233 s⁻¹ | 1.98e+06 M⁻¹ s⁻¹ | 2.28 nM | 1 | Kd [4]: 1.31 nM; koff [4]: 0.00317 s⁻¹; kon [4]: 2.42e+06 M⁻¹ s⁻¹; EC50 [7]: 0.0434 µg/mL
B3 | – | – | – | – | – | – | 0.788 nM | 2.89 | –
B4 | – | – | – | 4.9 nM | 0.00913 s⁻¹ | 1.86e+06 M⁻¹ s⁻¹ | – | – | KD/KD_WT [8]: 0.267
B5 | – | – | – | – | – | – | 51.4 nM | 0.04 | –
B6 | – | – | – | 13.3 nM | 0.0358 s⁻¹ | 2.68e+06 M⁻¹ s⁻¹ | – | – | KD/KD_WT [8]: 0.098
B7 | – | – | – | – | – | – | 45.3 nM | 0.05 | –
B8 | – | – | – | – | – | – | 25.9 nM | 0.09 | –
B9 | – | – | – | 13 nM | 0.0153 s⁻¹ | 1.18e+06 M⁻¹ s⁻¹ | – | – | KD/KD_WT [8]: 0.1
B10 | – | – | – | – | – | – | 20.4 nM | 0.11 | –
B11 | 15 ng/mL | 31 ng/mL | 46 ng/mL | – | – | – | – | – | binding result [9]: no binding
B12 | 6 ng/mL | 22 ng/mL | 46 ng/mL | – | – | – | – | – | binding result [9]: no binding
B13 | 3 ng/mL | 12 ng/mL | 25 ng/mL | – | – | – | – | – | binding result [9]: no binding; EC50 [1]: 0.092 µg/mL
